Data taken from article PMC7615972, “Cachd1 interacts with Wnt receptors and regulates neuronal asymmetry in the zebrafish brain” (Science (New York, N.Y.), 2024).
Blank lines part the entries; values can stand above or below the binder they belong to.

Molecular target: T1, purified mouse CACHD1 extracellular domain (CACHD1ECD) (mouse, UniProt Q6PDJ1 50-1109)
T1 construct: CACHD1, mouse, extracellular domain; Construct limits and tags are in the supplementary methods; also called mouse CACHD1ECD; source: purified recombinant
T1 sequence (looked up): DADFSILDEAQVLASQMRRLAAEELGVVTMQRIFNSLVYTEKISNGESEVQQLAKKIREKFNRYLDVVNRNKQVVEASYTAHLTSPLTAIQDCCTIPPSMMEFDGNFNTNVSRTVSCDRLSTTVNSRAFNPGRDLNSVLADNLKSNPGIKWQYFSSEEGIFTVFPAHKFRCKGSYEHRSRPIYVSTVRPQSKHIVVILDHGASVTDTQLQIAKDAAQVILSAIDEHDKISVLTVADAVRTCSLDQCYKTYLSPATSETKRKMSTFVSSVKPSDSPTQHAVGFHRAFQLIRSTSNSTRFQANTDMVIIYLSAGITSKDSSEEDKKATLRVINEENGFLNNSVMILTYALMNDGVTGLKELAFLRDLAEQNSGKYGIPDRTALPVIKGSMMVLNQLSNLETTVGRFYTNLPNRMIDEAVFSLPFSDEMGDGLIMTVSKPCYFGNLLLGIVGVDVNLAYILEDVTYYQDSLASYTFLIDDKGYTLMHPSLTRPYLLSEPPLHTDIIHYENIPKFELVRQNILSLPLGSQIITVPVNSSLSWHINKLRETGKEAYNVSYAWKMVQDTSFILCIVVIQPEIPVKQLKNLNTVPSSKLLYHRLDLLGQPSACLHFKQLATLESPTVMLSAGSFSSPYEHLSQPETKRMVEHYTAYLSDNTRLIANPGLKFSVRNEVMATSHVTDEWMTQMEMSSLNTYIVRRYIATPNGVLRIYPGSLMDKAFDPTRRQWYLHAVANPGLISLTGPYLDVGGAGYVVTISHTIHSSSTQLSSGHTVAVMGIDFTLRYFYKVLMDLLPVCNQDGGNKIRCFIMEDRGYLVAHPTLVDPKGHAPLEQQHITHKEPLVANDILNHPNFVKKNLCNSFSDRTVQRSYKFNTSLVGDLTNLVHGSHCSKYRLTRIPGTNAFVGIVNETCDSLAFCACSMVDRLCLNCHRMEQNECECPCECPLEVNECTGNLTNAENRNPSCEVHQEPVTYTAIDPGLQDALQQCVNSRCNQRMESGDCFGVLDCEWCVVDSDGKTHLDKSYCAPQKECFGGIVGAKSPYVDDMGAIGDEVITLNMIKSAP
Assay: SPR; mouse CACHD1ECD as analyte; FZD CRDs or LRP6 fragments immobilised; equilibrium dissociation constants
Conditions: both partners purified

Kd: 170 ± 10 nM
B1: human LRP6 membrane proximal fragment (LRP6_(P3E3P4E4)) (domain or fragment)
chain: VPEAFLLFSRRADIRRISLETNNNNVAIPLTGVKEASALDFDVTDNRIYWTDISLKTISRAFMNGSALEHVVEFGLDYPEGMAVDWLGKNLYWADTGTNRIEVSKLDGQHRQVLVWKDLDSPRALALDPAEGFMYWTEWGGKPKIDRAAMDGSERTTLVPNVGRANGLTIDYAKRRLYWTDLDTNLIESSNMLGLNREVIADDLPHPFGLTQYQDYIYWTDWSRRSIERANKTSGQNRTIIQGHLDYVMDILVFHSSRQSGWNECASSNGHCSHLCLAVPVGGFVCGCPAHYSLNADNRTCSAPTTFLLFSQKSAINRMVIDEQQSPDIILPIHSLRNVRAIDYDPLDKQLYWIDSRQNMIRKAQEDGSQGFTVVVSSVPSQNLEIQPYDLSIDIYSRYIYWTCEATNVINVTRLDGRSVGVVLKGEQDRPRAVVVNPEKGYMYFTNLQERSPKIERAALDGTEREVLFFSGLSKPIALALDSRLGKLFWADSDLRRIESSDLSGANRIVLEDSNILQPVGLTVFENWLYWIDKQQQMIEKIDMTGREGRTKVQARIAQLSDIHAVKELNLQEYRQHPCAQDNGGCSHICLVKGDGTTRCSCPMHLVLLQDELSCG
notes: LRP6, human, membrane proximal fragment P3E3P4E4; also called 3-4

Kd: 480 ± 40 nM
B2: mouse FZD5 cysteine-rich domain (FZD5CRD) (domain or fragment)
chain: ASKAPVCQEITVPMCRGIGYNLTHMPNQFNHDTQDEAGLEVHQFWPLVEIHCSPDLRFFLCSMYTPICLPDYHKPLPPCRSVCERAKAGCSPLMRQYGFAWPERMSCDRLPVLGGDAEVLCMDYNRSEAT
notes: Frizzled-5, mouse, cysteine-rich domain (CRD); source: purified recombinant
